From US20230227514A1, “BETA-ARRESTIN COMPOSITIONS AND ASSOCIATED METHODS” (Duke University, priority 2020, published 2023)

Columns and labels:
[1] = biological target: T1, D2 dopamine receptor (D2R) (Homo sapiens, UniProt P14416); assay: Co-immunoprecipitation of βarrestin2 constructs with HA-D2R; type: binding; details: HEK-293 cells stably expressing HA-D2R, co-IP
T1 construct: expressed in transfected cells
Protocol: Cross-linking, Immunoprecipitation and Immunoblotting. […] Twenty-four hours post-transfection, cells were starved in PBS containing 10 mM HEPES (pH 7.4) for 1 h and stimulated with vehicle or agonist (isoproterenol, 1 μM; or AVP 1 μM, or Dopamine 1 μM) at 37° C. for desired times. After stimulations, β2AR stable cells were treated with the crosslinker DSP to a final concentration of […], and plates were rocked for 20 min at room temperature. Reaction was quenched by adding 25 μl of 1M Tris-Cl pH 8.5 per 1 mL volume of buffer in the dish and rocked for additional 5 min at room temperature.
Harvested cells were washed with ice-cold PBS (pH 7.4) and solubilized in an ice-cold lysis buffer (50 mM HEPES (pH 7.5), 2 mM EDTA, 250 mM NaCl, 10% (v/v) glycerol, and 0.5% (v/v) IGEPAL CA-630) that was supplemented with phosphatase and protease inhibitors (1 mM sodium orthovanadate, 1 mM sodium fluoride, 1 mM phenylmethylsulfonyl fluoride, 5 μg/ml leupeptin, 5 μg/ml aprotinin, 1 μg/ml pepstatin A, and 100 μM benzamidine). […] Cell lysate protein concentrations were determined by Bradford protein assay and equivalent μg of proteins were immunoprecipitated using anti-FLAG M2 antibody resin (for FIG. 2) or Anti-HA magnetic beads from Thermo Pierce (for FIG. 5, FIG. 7, and FIG. 8). […] HA-D2R or HA-V2R were detected using an anti-HA IgG (Cell Signaling Technologies). […]

[2] = biological target: T2, RanGAP1 (Homo sapiens, UniProt P46060); assay: Co-immunoprecipitation of YFP-βarrestin2 constructs with endogenous RanGAP1; type: binding; details: IP of YFP proteins, probed for RanGAP1
T2 construct: endogenous in cells; host or cells: HEK-293T / HEK-293
T2 sequence (P46060 2-587 limits assumed): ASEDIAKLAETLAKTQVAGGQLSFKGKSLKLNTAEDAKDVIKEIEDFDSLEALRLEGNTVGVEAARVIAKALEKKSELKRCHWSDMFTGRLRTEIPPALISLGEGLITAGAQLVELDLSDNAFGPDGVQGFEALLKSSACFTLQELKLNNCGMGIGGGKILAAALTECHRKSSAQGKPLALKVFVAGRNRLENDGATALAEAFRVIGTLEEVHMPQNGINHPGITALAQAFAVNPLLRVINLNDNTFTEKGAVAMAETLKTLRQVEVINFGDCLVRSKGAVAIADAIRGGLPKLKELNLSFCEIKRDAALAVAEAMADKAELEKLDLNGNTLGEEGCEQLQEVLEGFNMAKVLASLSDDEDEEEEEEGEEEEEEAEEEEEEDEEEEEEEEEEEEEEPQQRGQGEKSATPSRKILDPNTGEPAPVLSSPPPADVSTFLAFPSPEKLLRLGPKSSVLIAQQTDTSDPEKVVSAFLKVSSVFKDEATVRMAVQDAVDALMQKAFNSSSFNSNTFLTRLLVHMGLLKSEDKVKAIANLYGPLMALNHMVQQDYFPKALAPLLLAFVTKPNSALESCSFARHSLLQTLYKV
T2 sequence (P63165 2-97 partner limits assumed): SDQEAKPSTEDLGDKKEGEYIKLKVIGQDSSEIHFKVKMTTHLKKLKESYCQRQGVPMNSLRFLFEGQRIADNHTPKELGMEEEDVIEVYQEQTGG
From the text: HEK-293T cells were transiently transfected with indicated plasmids and subjected to coimmunoprecipitation with GFP IgG (3E6, Thermo Fisher) to immunoprecipitate YFP-βarrestin2 or YFP-βarrestin2-SUMO1 (“IP: YFP”). IPs were probed for endogenous RanGAP1, and for βarrestins. Cell lysates were also blotted to determine total cell protein levels (“Lysates”). Blots shown are from one of three independent experiments.

[3] = biological target: T2, RanGAP1; assay: Confocal colocalization with endogenous RanGAP1 at the nuclear envelope; type: cell-based; details: HEK-293 cells with or without β2AR agonist stimulation
Protocol: Immunostaining and confocal microscopy. […] Twenty-four hours post-transfection, cells were serum-starved for 4 h, and either left untreated or treated with respective agonists for the indicated times in the Figure descriptions. After stimulation, cells were fixed with 5% formaldehyde diluted in phosphate-buffered saline (PBS), permeabilized with 0.1% Triton in PBS containing 2% bovine serum albumin for 20 min and incubated at room temperature with appropriate primary antibody. The next day, cells were washed three times with PBS and incubated with Alexa594 conjugated secondary antibody for 1 h, followed by repeated washes using PBS. Confocal images were acquired using Zeiss LSM510 laser-scanning microscope using multitrack sequential with excitation (488 and 568 nm) and emission (BP 505-550 nm and LP 585 nm) filter sets. Images (1024×1024 pixels) were collected using either a 63× or 100× oil immersion lens. Images were processed for Figure presentation using Adobe Photoshop software, and any increase or decrease of brightness/contrast was applied to the entire image. The nuclear rim localization of YFP-βarrestin2-SUMO1 is readily visualized in cells with low to moderate expression of YFP-protein. In cells with high expression, this localization is present, and can be discerned by enlarging sections of the nuclear rim. […]

T1 sequence (P14416 whole entry): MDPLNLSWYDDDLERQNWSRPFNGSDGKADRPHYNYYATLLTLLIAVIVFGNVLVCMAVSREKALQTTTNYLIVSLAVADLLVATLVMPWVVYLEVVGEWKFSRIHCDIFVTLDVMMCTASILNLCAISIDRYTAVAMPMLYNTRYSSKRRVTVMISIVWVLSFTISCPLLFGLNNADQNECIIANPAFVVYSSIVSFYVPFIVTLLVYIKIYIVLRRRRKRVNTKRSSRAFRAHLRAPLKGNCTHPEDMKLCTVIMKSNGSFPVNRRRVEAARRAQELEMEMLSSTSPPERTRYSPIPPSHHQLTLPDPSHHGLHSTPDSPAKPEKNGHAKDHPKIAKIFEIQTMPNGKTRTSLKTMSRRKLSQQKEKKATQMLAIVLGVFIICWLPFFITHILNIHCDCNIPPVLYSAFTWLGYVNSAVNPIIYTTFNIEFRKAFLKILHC

βarrestin2-SUMO1: rat βarrestin2 polypeptide fused to human SUMO1 (SEQ ID NO:1); used YFP- or Flag-tagged
binding to activated D2R relative to wild-type βarrestin2 ([1]; 20 minutes of 1 μM dopamine, Western blot): 3-4 fold
D2R-binding affinity versus βarrestin2 ([1]; five minutes of 1 μM dopamine): no significant difference
association with endogenous RanGAP1 forms by co-immunoprecipitation [2]: associated only with SUMO-RanGAP1
colocalization with endogenous RanGAP1 at the nuclear envelope [3]: dramatic increase in colocalization
